This is an account of results in patent US20230055408A1 (JIANGSU HENGRUI MEDICINE, published 2023).

Test [1] deals with T1, human CEA protein on the cell surface (human, UniProt P06731 35-685).
T1 construct: whole, on cells; also called CEACAM-5; CD66e
T1 sequence (looked up): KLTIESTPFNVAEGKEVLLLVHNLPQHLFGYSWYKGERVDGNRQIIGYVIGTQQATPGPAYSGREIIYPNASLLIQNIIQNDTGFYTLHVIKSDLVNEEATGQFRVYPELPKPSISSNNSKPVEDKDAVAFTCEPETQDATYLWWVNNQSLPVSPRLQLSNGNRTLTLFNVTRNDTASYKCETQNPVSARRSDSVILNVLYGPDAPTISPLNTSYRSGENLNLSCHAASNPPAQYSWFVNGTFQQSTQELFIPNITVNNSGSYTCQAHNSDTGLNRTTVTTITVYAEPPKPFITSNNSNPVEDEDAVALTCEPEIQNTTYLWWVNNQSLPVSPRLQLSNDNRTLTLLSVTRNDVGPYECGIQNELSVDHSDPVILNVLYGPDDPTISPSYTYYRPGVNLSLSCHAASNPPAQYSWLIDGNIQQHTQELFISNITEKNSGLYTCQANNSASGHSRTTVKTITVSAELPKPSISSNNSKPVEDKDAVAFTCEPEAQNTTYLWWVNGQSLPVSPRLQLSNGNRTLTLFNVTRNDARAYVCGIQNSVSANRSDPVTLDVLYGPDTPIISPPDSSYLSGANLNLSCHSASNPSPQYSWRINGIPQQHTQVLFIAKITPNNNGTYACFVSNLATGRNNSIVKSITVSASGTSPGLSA
Briefly: FACS, MKN45 cells. Here is the method:
(§1) In order to detect the binding of the antibody to the CEA protein on the cell surface, the binding activity of the antibody was determined by FACS using cells expressing CEA on the cell surface. Cells were harvested and centrifuged at 400 g at 4° C. for 5 min. Pre-cooled PBS containing FBS at final concentration 10% was added, and the mixture was centrifuged at 400 g at 4° C. for 5 min; the procedures were repeated twice. The cells were seeded into a 96-well plate at 10⁵ cells/well, and 100 μL of gradient diluted antibody solution was added to each well. The plate was incubated at 4° C. for 60 min and centrifuged, and the supernatant was removed. 250 μL of pre-cooled PBS containing FBS at final concentration 10% was added to each well to resuspend the cells, and the suspension was centrifuged at 400 g at 4° C. for 5 min, followed by the removal of the supernatant; the procedures were repeated twice. 50 μL of 1:200 diluted secondary antibody Alexa Fluor@488 goat anti-human IgG (H+L) (Lifetechologies, Cat #A11013) was added. […] 250 μL of pre-cooled PBS containing FBS at final concentration 10% was added to each cell to resuspend the cells, and the suspension was centrifuged at 400 g at 4° C. for 5 min; the procedures were repeated twice. 100 μL of pre-cooled PBS was added to each well to resuspend the cells. The plate was analyzed by a flow cytometer (BD, FACSverse) for fluorescence signal values.

The target of test [2] is T2, monkey CEA expressed on CHO cell surface (cynomolgus monkey).
T2 construct: also called cynoCEA-CHO; monkey CEA proteins on the cell surface
T2 chain: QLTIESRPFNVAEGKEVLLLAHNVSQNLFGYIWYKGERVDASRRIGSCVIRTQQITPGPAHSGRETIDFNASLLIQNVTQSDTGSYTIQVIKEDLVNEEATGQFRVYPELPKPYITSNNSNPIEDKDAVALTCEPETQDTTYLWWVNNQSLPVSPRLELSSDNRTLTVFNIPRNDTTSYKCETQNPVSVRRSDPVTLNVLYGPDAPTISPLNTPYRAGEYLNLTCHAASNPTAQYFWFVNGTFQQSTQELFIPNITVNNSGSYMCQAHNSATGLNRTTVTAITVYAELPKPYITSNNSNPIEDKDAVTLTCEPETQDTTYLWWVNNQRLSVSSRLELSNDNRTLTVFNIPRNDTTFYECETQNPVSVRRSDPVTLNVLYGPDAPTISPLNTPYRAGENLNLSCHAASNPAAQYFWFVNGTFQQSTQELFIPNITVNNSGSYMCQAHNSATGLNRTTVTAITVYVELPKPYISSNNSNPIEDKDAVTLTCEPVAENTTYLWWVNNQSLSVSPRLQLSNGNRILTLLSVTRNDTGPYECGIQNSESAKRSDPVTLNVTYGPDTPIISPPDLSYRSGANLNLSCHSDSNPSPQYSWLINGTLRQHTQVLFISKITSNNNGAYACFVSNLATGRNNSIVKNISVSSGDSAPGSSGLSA
Put plainly: FACS, cynoCEA-CHO cells. How it is done:
as §1

B1: Hu103-11 (antibody, human IgG1, lambda)
heavy: not shown
light: ELVLTQSPSASASLGASVKLTCTLSSQHSTYTIEWYQQQPEKGPRYVMELKKDGSHSTGDGIPDRFSGSSSGAERYLTISSLQSEDEADYYCGVGNTIKEQFVYVFGGGTKLTVLGQPKANPTVTLFPPSSEELQANKATLVCLISDFYPGAVTVAWKADGSPVKAGVETTKPSKQSNNKYAASSYLSLTPEQWKSHRSYSCQVTHEGSTVEKTVAPTECS
Regarding B1, the EC50 (in general, the midpoint of the concentration-response curve) was determined as 2.71 nM in test [1] and 0.92 nM in test [2].

B2: Hu103-2 (antibody, human IgG1, lambda, V domains shown)
VH: EVQLVQSGSELKKPGASVKVSCKASGYTFTTYGVIWVRQAPGQGLEWMGWINTYSGVPTYADDFKGRFVFSLDTSVSTAYLQISSLKAEDTAVYYCARKKTLTTVTPWFAYWGQGTLVTVSS
VL: ELVLTQSPSASASLGASVKLTCTLSSQHSTYTIEWYQQQPEKGPRYLMELKKDGSHSTGDGIPDRFSGSSSGAERYLTISSLQSEDEADYYCGVGNTIKEQFVYVFGGGTKLTVLG
Turning to B2, the EC50 amounted to 2.18 nM in test [1] and 1.26 nM in test [2].

B3: Hu103-1 (antibody, human IgG1, lambda, V domains shown)
VH: EVQLVQSGSELKKPGASVKVSCKASGYTFTTYGVIWVRQAPGQGLEWMGWINTYSGVPTYADDFKGRFVFSLDTSVSTAYLQISSLKAEDTAVYYCARKKTLTTVTPWFAYWGQGTLVTVSS
VL: ELVLTQSPSASASLGASVKLTCTLSSQHSTYTIEWHQQQPEKGPRYLMELKKDGSHSTGDGIPDRFSGSSSGAERYLTISSLQSEDEADYYCGVGNTIKEQFVYVFGGGTKLTVLG
As for B3, the EC50 turned out to be 2.37 nM in test [1] and 2.49 nM in test [2].

B4: Hu63-5 (antibody, human IgG1, kappa, V domains shown)
VH: EVQLVQSGAEVKKPGASVKVSCKASGYTFTDFYMNWVRQAPGQGLEWMGDIFPKNGNTDYNRKFKDRVTLTVDKSTSTVYMELSSLRSEDTAVYYCARSGYGNYVFDYWGQGTLVTVSS
VL: DVQMTQSPSSLSASVGDRVTITCRTSQDINIYLNWYQQKPGKAPKLLIYYRSGLLSGVPSRFSGSGSGTDYTLTISSLQPEDFATYYCQQGNTLPPTFGGGTKVEIKR
Turning to B4, the EC50 in test [1] was 3.7 nM; in test [2], 2.14 nM.

B5: Hu63-9 (antibody, human IgG1, kappa, V domains shown)
VH: EVQLVQSGAEVKKPGASVKVSCKASGYTFTDFYMNWVRQAPGQGLEWIGDIFPKNGNTDYNRKFKDRATLTVDKSTSTVYMEFSSLRSEDTAVYYCARSGYGNYVFDYWGQGTLVTVSS
VL: DVQMTQSPSSLSASVGDRVTITCRTSQDINIYLNWYQQKPGGAVKLLIYYRSGLLSGVPSRFSGSGSGTDYTLTISSLQPEDFATYYCQQGNTLPPTFGGGTKVEIKR
For B5, the figures for the EC50 in test [1] and in test [2] were 4.87 nM and 2.47 nM, respectively.

B6: Hu63-11 (antibody, human IgG1, kappa, V domains shown)
VH: EVQLVQSGAEVKKPGASVKVSCKASGYTFTDFYMNWVRQAPGQGLEWIGDIFPKNGNTDYNRKFKDKATLTVDKSTSTVYMEFRSLRSEDTAVYYCARSGYGNYVFDYWGQGTLVTVSS
VL: DVQMTQSPSSLSASVGDRVTITCRTSQDINIYLNWYQQKPGKAPKLLIYYRSGLLSGVPSRFSGSGSGTDYTLTISSLQPEDFATYYCQQGNTLPPTFGGGTKVEIKR
Turning to B6, the EC50 in test [1] was found to be 4.35 nM; in test [2], 2.29 nM.

B7: Hu63-12 (antibody, human IgG1, kappa, V domains shown)
VH: EVQLVQSGAEVKKPGASVKVSCKASGYTFTDFYMNWVRQAPGQGLEWIGDIFPKNGNTDYNRKFKDKATLTVDKSTSTVYMEFRSLRSEDTAVYYCARSGYGNYVFDYWGQGTLVTVSS
VL: DVQMTQSPSSLSASVGDRVTITCRTSQDINIYLNWYQQKPGGAVKLLIYYRSGLLSGVPSRFSGSGSGTDYTLTISSLQPEDFATYYCQQGNTLPPTFGGGTKVEIKR
For the molecule B7, the EC50 was 4.04 nM in test [1] and 2.23 nM in test [2].

B8: Hu63-10 (antibody, human IgG1, kappa, V domains shown)
VH: EVQLVQSGAEVKKPGASVKVSCKASGYTFTDFYMNWVRQAPGQGLEWIGDIFPKNGNTDYNRKFKDKATLTVDKSTSTVYMEFRSLRSEDTAVYYCARSGYGNYVFDYWGQGTLVTVSS
VL: DIQMTQSPSSLSASVGDRVTITCRTSQDINIYLNWYQQKPGKAPKLLIYYRSGLLSGVPSRFSGSGSGTDFTLTISSLQPEDFATYYCQQGNTLPPTFGGGTKVEIKR
With B8, the results for the EC50 in test [1] and in test [2] were 4.95 nM and 1.88 nM, respectively.

B9: Hu63-3 (antibody, human IgG1, kappa, V domains shown)
VH: EVQLVQSGAEVKKPGASVKVSCKASGYTFTDFYMNWVRQAPGQGLEWMGDIFPKNGNTDYNRKFKDRVTMTRDTSTSTVYMELSSLRSEDTAVYYCARSGYGNYVFDYWGQGTLVTVSS
VL: DVQMTQSPSSLSASVGDRVTITCRTSQDINIYLNWYQQKPGGAVKLLIYYRSGLLSGVPSRFSGSGSGTDYTLTISSLQPEDFATYYCQQGNTLPPTFGGGTKVEIKR
For B9, the EC50 in test [1] is 3.56 nM; in test [2] it was 2.01 nM.

B10: Hu63-6 (antibody, human IgG1, kappa, V domains shown)
VH: EVQLVQSGAEVKKPGASVKVSCKASGYTFTDFYMNWVRQAPGQGLEWMGDIFPKNGNTDYNRKFKDRVTLTVDKSTSTVYMELSSLRSEDTAVYYCARSGYGNYVFDYWGQGTLVTVSS
VL: DVQMTQSPSSLSASVGDRVTITCRTSQDINIYLNWYQQKPGGAVKLLIYYRSGLLSGVPSRFSGSGSGTDYTLTISSLQPEDFATYYCQQGNTLPPTFGGGTKVEIKR
B10: the values for the EC50 in test [1] and in test [2] were 3.71 nM and 2.88 nM, respectively.

B11: Hu63-1 (antibody, human IgG1, kappa, V domains shown)
VH: EVQLVQSGAEVKKPGASVKVSCKASGYTFTDFYMNWVRQAPGQGLEWMGDIFPKNGNTDYNRKFKDRVTMTRDTSTSTVYMELSSLRSEDTAVYYCARSGYGNYVFDYWGQGTLVTVSS
VL: DIQMTQSPSSLSASVGDRVTITCRTSQDINIYLNWYQQKPGKAPKLLIYYRSGLLSGVPSRFSGSGSGTDFTLTISSLQPEDFATYYCQQGNTLPPTFGGGTKVEIKR
As for B11, the EC50 in test [1] is 4.23 nM.

B12: Hu63-8 (antibody, human IgG1, kappa, V domains shown)
VH: EVQLVQSGAEVKKPGASVKVSCKASGYTFTDFYMNWVRQAPGQGLEWIGDIFPKNGNTDYNRKFKDRATLTVDKSTSTVYMEFSSLRSEDTAVYYCARSGYGNYVFDYWGQGTLVTVSS
VL: DVQMTQSPSSLSASVGDRVTITCRTSQDINIYLNWYQQKPGKAPKLLIYYRSGLLSGVPSRFSGSGSGTDYTLTISSLQPEDFATYYCQQGNTLPPTFGGGTKVEIKR
In the case of B12, the EC50 came to 3.24 nM in test [1] and 2.43 nM in test [2].

B13: Hu63-4 (antibody, human IgG1, kappa, V domains shown)
VH: EVQLVQSGAEVKKPGASVKVSCKASGYTFTDFYMNWVRQAPGQGLEWMGDIFPKNGNTDYNRKFKDRVTLTVDKSTSTVYMELSSLRSEDTAVYYCARSGYGNYVFDYWGQGTLVTVSS
VL: DIQMTQSPSSLSASVGDRVTITCRTSQDINIYLNWYQQKPGKAPKLLIYYRSGLLSGVPSRFSGSGSGTDFTLTISSLQPEDFATYYCQQGNTLPPTFGGGTKVEIKR
Consider B13, for which the EC50 was 5.18 nM in test [1] and 1.95 nM in test [2].

B14: Hu63-2 (antibody, human IgG1, kappa, V domains shown)
VH: EVQLVQSGAEVKKPGASVKVSCKASGYTFTDFYMNWVRQAPGQGLEWMGDIFPKNGNTDYNRKFKDRVTMTRDTSTSTVYMELSSLRSEDTAVYYCARSGYGNYVFDYWGQGTLVTVSS
VL: DVQMTQSPSSLSASVGDRVTITCRTSQDINIYLNWYQQKPGKAPKLLIYYRSGLLSGVPSRFSGSGSGTDYTLTISSLQPEDFATYYCQQGNTLPPTFGGGTKVEIKR
In turn, B14 displayed a concentration giving a half-maximal response (EC50) in test [1] of 3.73 nM.
